{"source": "patent US20190048085A1", "about": "(CELL MEDICA SWITZERLAND, published 2019)", "binders": {"B1": {"name": "anti-PD-L1 scFv (scFv)", "scFv": "EIVMTQSPSTLSASVGDRVIITCQASEDIYSLLAWYQQKPGKAPKLLIYDASDLASGVPSRFSGSGSGAEFTLTISSLQPDDFATYYCQGNYGSSSSSSYGAVFGQGTKLTVLGGGGGSGGGGSGGGGSGGGGSEVQLVESGGGLVQPGGSLRLSCTVSGIDLSSYTMGWVRQAPGKGLEWVGIISSGGRTYYASWAKGRFTISRDTSKNTVYLQMNSLRAEDTAVYYCARGRYTGYPYYFALWGQGTLVTVSS", "notes": "Humanized scFv with rabbit CDRs, VL-linker-VH; also called scFv1; scFv control"}}, "key": {"[1]": {"molecular_target": "T1, recombinant human PD-L1 Fc fusion (human, UniProt Q9NZQ7 19-239)", "T1 construct": "Bought Fc fusion (RnD Systems 156-B7); also called rhPD-L1 Fc fusion; not shown: Fc part of the bought fusion", "T1 sequence (Q9NZQ7 19-239 limits assumed)": "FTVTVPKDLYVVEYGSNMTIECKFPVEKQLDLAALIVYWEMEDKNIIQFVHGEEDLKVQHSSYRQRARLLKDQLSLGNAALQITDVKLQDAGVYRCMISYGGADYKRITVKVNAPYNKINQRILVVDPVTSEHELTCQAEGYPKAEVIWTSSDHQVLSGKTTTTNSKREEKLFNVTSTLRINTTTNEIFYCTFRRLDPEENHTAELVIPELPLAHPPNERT", "experiment": "ELISA on immobilized recombinant human PD-L1-Fc (2 µg/mL), detection with Protein L-HRP, A450 nm", "description": "After, blocking with 5% non-fat dry milk, increasing concentrations of scFv was added and detected by Protein L-HRP (Sigma-Aldrich)."}, "[2]": {"molecular_target": "monkey PD-L1 Fc fusion (monkey (Rhesus macaque, Macaca mulatta)) (UniProt F6PJN1)", "experiment": "KinExA, room temperature, two curves (50 pM and 10 pM scFv)"}, "[3]": {"molecular_target": "monkey PD-L1 Fc fusion (monkey (Rhesus macaque, Macaca mulatta)) (UniProt F6PJN1)", "experiment": "KinExA, ratio of KD values"}}}
{"binder": "B1", "values": [{"measurement": "EC50 (read off the curve)", "setting": "[1]", "value": "~8", "unit": "ng/mL"}, {"measurement": "Kd", "setting": "[2]", "value": 3.3, "unit": "pM"}, {"measurement": "fold tighter affinity than binding to human PD-L1", "setting": "[3]", "value": 2.7, "unit": "fold"}]}
